Laboratory results published in paper PMC9798831.

B1: Target_69 duplex (oIQ088/oIQ089) (dsDNA)
DNA 1: GCGAAGGCTTAATCATCGTGGATGAAGCCGACCACCTCGATTACCCCACGCTTGAAGAACTGCGGATCC
DNA 2: GGATCCGCAGTTCTTCAAGCGTGGGGTAATCGAGGTGGTCGGCTTCATCCACGATGATTAAGCCTTCGC

Tests used:
[1] = biological target: ShTnsC (Scytonema hofmanni)
ShTniQ;ShTnsC = biological target: T1, ShTniQ;ShTnsC (Scytonema hofmanni;Scytonema hofmanni, UniProt A0ABR8GRC6;A0ABR8GR16 1-167;1-276, |); experiment: cryo-EM
T1 sequence 1: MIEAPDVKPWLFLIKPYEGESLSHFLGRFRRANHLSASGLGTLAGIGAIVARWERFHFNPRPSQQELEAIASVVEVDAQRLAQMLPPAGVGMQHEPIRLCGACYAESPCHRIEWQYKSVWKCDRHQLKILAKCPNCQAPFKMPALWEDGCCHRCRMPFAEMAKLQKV
T1 sequence 2: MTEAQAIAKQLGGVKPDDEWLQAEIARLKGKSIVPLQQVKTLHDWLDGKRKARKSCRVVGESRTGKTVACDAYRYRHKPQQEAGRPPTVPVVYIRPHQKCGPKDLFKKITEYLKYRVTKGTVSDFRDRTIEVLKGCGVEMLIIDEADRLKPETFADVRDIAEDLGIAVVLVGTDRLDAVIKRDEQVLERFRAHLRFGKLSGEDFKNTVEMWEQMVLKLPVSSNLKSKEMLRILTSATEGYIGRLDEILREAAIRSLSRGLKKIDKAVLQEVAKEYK

Molecule | site-specific transposition activity of ShCAST in E. coli (ddPCR) [1] [% reduction] | binding result (ShTniQ;ShTnsC)
TniQ with alanine substitution of Trp10 (natural protein) | > 90 | 
TniQ with glutamate substitution of Arg155 (natural protein) | 50 | 
B1 |  | binds
